Two substances from patent EP1514558A1 can be followed below.

The assay deals with recombinant MARK2, expressed in E. coli (Rattus norvegicus (Rat)) (UniProt O08679). Briefly: cell-based or functional assay.
recombinant MARK2, expressed in E. coli (Rattus norvegicus (Rat)), sequence (O08679 1-722, tags left off): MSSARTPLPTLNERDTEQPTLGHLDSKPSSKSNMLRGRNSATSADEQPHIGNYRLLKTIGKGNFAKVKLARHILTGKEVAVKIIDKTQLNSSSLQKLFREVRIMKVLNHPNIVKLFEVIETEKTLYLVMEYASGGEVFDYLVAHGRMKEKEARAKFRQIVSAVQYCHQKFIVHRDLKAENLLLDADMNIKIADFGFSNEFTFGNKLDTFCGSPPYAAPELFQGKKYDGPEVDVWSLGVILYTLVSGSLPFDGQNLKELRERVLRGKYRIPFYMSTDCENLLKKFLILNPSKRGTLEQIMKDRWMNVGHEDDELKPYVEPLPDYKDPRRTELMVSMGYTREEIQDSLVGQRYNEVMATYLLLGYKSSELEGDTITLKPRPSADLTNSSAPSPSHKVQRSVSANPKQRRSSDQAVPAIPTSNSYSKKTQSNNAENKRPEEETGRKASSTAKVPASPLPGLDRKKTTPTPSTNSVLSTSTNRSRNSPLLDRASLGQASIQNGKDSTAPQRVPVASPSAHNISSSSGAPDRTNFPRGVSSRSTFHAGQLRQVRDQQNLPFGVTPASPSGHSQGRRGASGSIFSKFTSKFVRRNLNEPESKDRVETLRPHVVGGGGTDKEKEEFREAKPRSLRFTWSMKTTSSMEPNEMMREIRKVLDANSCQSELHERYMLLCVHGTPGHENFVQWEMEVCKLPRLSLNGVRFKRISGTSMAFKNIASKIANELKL

With “recombinant MARKK (His10-tagged at the N-terminus), expressed in Sf9 cells (from UniProt O88664 1-1001) (enzyme)”, the activation of MARK2 (Fig. 4B) is 10 fold.
Consider “MARK-activating factor (MAF) purified from porcine brain”, for which the activation of MARK2 by fraction 14 worked out at 10 fold.
